{"source": "the DeepSol protein solubility set"}
{"assay": "soluble on expression in E. coli; label from the status in PepcDB or PDB records"}
{"sequence": "MSEAEYFSHFISNGNGKLLEIPQRRGRQDGVFIDWLSFTLHEDSLLKVSGCPLVSDAEYMFVLSKKLEEILGFGITSRCKSKGNKFYDSMFRLGSEEVDYGEVHYGGQRNTVLIELKGVGCNIANPGWELRLKQFLEDSLRPRITRVDLALDFFDGEYTPEQALLDHDNGFFDNSNMRPKSEMVGTAWRREDGSGKTFYVGRKKNSRFVRVYEKGRQLGDKESKWVRFEIQFNHGDMEIPLDILINQGSYFSGAFPICQKFKNMPNPERFDYRKKVANLTFQHKLRYAKNAVGKLINFMFDMGFDSDEIVRYLKADLGYPKGLEPEKYSLAGLKESLKFGFIHEQPDVDLEVELEELGIIKFKQSDKFDPDKRLFDPHHDVESERQYQLYLDRMYDLHANQN", "soluble on expression in E. coli": "not soluble"}
{"sequence": "MSEEIKPSAPDAPTASPIVTRDEQNLVVSFLQFIRQKVSQNQATAEQAEALEVAIQCLEHSFGLDDASYAFQPSRPILELFKSAEGLPEGESALPTPSDSDISQANKLKEEGNDLMKASQFEAAVQKYNAAIKLNRDPVYFCNRAAAYCRLEQYDLAIQDCRTALALDPSYSKAWGRMGLAYSCQNRYEHAAEAYKKALELEPNQESYKNNLKIAEDKLKELESSRPAPGANPLAGLLGAMGGGPGGMPAMPGMPNMQNLMNEPGLMQAASQMMSDPALSDMFNNMMSGNGSIADLMAAGQQMAARMQETNPELIENLRRQFGPGADGGAPPPNPPQ", "soluble on expression in E. coli": "not soluble"}
{"sequence": "MSEEISLSAEFIDRVKASVKPHWGKLGWVTYKRTYARWLPEKGRSENWDETVKRVVEGNINLDPRLQDSPSLELKQSLTEEAERLYKLIYGLGATPSGRNLWISGTDYQRRTGDSLNNCWFVAIRPQKYGDSKIVPSYLGKQEKAVSMPFSFLFDELMKGGGVGFSVARSNISQIPRVDFAIDLQLVVDETSESYDASVKVGAVGKNELVQDADSIYYRLPDTREGWVLANALLIDLHFAQTNPDRKQKLILDLSDIRPYGAEIHGFGGTASGPMPLISMLLDVNEVLNNKAGGRLTAVDAADICNLIGKAVVAGNVRRSAELALGSNDDQDFISMKQDQEKLMHHRWASNNSVAVDSAFSGYQPIAAGIRENGEPGIVNLDLSKNYGRIVDGYQAGIDGDVEGTNPCGEISLANGEPCNLFEVFPLIAEEQGWDLQEVFALAARYAKRVTFSPYDWEISREIIQKNRRIGISMSGIQDWLLTRLGNRVVTGFKDDFDPETHEAIKVPVYDKRAIKMVDQLYKAVVKADQDYSKTLGCNESIKHTTVKPSGTVAKLAGASEGMHFHYGAYLIQRIRFQDSDPLLPALKACGYRTEADIYTENTTCVEFPIKAVGADNPNFASAGTVSIAEQFATQAFLQTYWSDNAVSCTITFQDSEGDQVESLLRQYRFITKSTSLLPYFGGSLQQAPKEPIDKETYEKRSQEITGNVEEVFSQLNSDVKDLELVDQTDCEGGACPIK", "soluble on expression in E. coli": "soluble"}
{"sequence": "MSEFKSKLESETLDFLCDAILTLENREECYRFFDDIFTINEIKTIEQRLQVAKMLKEKHTYSDISAETGASTATISRVNRCINYGSDGYNIVLRRLEK", "soluble on expression in E. coli": "not soluble"}
{"sequence": "MSEKDFVQVAKLGKTVGLKGYVKLHNLSDFSSQFKKDATFFIKNTKEMLKIKHYNANNSTVLFENYEDIEKAKELTNLILFQSIEKSRQTCKLKKDEFFYFDILECEVFEEDKRLGKVVDILETGASYLFEIQSDEKWVEKKYPKIFFIPYLDKFVKNIDIEKRQIFCTQDAFLILENSLEHHHHHH", "soluble on expression in E. coli": "soluble"}
{"sequence": "MSEKRVQPLARDAMAYVLAGGRGSRLKELTDRRAKPAVYFGGKARIIDFALSNALNSGIRRIGVATQYKAHSLIRHLQRGWDFFRPERNESFDILPASQRVSETQWYEGTADAVYQNIDIIEPYAPEYMVILAGDHIYKMDYEYMLQQHVDSGADVTIGCLEVPRMEATGFGVMHVNEKDEIIDFIEKPADPPGIPGNEGFALASMGIYVFHTKFLMEAVRRDAADPTSSRDFGKDIIPYIVEHGKAVAHRFADSCVRSDFEHEPYWRDVGTIDAYWQANIDLTDVVPDLDIYDKSWPIWTYAEITPPAKFVHDDEDRRGSAVSSVVSGDCIISGAALNRSLLFTGVRANSYSRLENAVVLPSVKIGRHAQLSNVVIDHGVVIPEGLIVGEDPELDAKRFRRTESGICLITQSMIDKLDL", "soluble on expression in E. coli": "soluble"}
{"sequence": "MSEKTNPNLTLHDVTDKLEGDDEKYATALKTCGEVFAEVEAIFNDENYLSHAGWFKDESNNEGDVVYAKDTPHGRMVTISTELPMPVEDVMKETWNGMEALPEWNQNINFAARIAAPTSNFDIVTYGNNDVLVVSGREFVSARIWRKVGDGFILASRSVTVPSFKSKHKGKVRAHLHLAGARFRPNPENPETTLTDVVMLADLKGYLPKMIVNQVIGRIMIMDTVTNRRHFQNLKAKRTNN", "soluble on expression in E. coli": "not soluble"}
{"sequence": "MSELDTVIKNAEEIAIQEDEEIIEEVIEEEQVPWLGPTDVMEGQGEYYQSEELLEHEMVEYEDAEPYQSFLPIRDGAPYFSLNLPDLLSKAHQITQDTGVIVRLTSCFNKKCQRQVACGGCLYTIKDYVSDIQWNNWTCINPQCFGEIRTTPDFRDIREVHGHTANCPPPDEIQIAVRIAVYDTRLLAEFTDTPLENLYFGAVERLKIDCADGFVLFPPFEVVKSTLEDHRHNKIYRKRFEMQNLRDKQRKMNMTPDEVVFAENTSGMIRFRRTKPFPMSICNVCGEEISSTNLPSQDQLISHYMYTHGRRMTIERYEFKDVNTFEQYLRELNSMGKYKFKRMGLADENMFYLCSHDDRLNKTGIGRATRLQQQSCHCTAFIRVFDWRVRWKLNNLNYEQITKKSDIYTFNAVCKVEDMCMSLLNRLQDCQNPRVALGYREKIAAIVRKSTTDPGLCDEKSVEEIEKSWVLQKPIRGRPRKRVKLENGQEDGGGDLDEDDDVVMDDYEDGEENGDKKITASRRSESPKPASSSSEPPPPSTTEEASTSLADELPRVTREESTSSNTSGHVAGDVTTRSGRARKPPARLLDD", "soluble on expression in E. coli": "not soluble"}
{"sequence": "MSELEKTFGIKVSPGAIYPILSSLRKSGLIEVAREGKREKKLYRITEKGEEYLKKHEDEVEEALEIANKLKEFSELGGREVAQVLREVIENIDKLSEEQKTALAREFSEFVKRIKIILLGGE", "soluble on expression in E. coli": "soluble"}
{"sequence": "MSELHYLYGKPTGTADLRTVNSDFIVKEILPFSPSGEGEHHLVHIRKDGLNTVQVAEMLAKFAKVHPKEVTYAGQKDKNAITEQWFGIRIPGKETPAWIELNSDRLTVLSSSRHSKKLRIGALLGNRFILTLRNVTNVEDIISRIEKVSQIGVPNYFGEQRFGHDGKNLVLGRQMLAGKKVKDRNKRSMYLSAVRSHLFNTVVSYRLTHYGTRPLAGDCVMLAGSKSFFVTPEWDLVVLKRLIEKDIQLSAPLWGRGKMLPQGEAAEVETQAMADLTEDCYGLEHAGLEQERRPLLLEPQGLKHEQTSDGLVLEFILPAGCFATSLLRELVDYQDVKELQWQTTLTAETNVVTESNTAAANVSDNGESASLEHHHHHH", "soluble on expression in E. coli": "soluble"}
{"sequence": "MSENKNVQDTHISEQMKALHGALIRVVSALNRPRNDEKLIAEAGIQLDRALFSILISIERLGPIGVVELAERAGRDYTTVSRQVAKLEKLGLIIRQHNAIDRRIREAVISRTGKAMTERIDAAREQMGNVVFKDWPQDELDVFVRLMQKFADAMDSDASMPE", "soluble on expression in E. coli": "not soluble"}
{"sequence": "MSENPVVSDKKPGPSKDSSFFSDLYDNLNQNPYFNAGAGLAGIGIAMSFLRRTAQISNTYFRRRFMINLQINNEDAAYPWLLDFINNRSATQTRNLSANTVVHQAESGKTELSISFLPGHGTHFFVHDYRWIKVERQREKQVIQRDGIRTPFETVTLTTLGSDVKFFKRMLEQSAKEAIDNAETGLVIYQAVGPQWIRFGVPRKKRDIESVILDGRICEELVEDFQEFISSATWYADRGVPYRRGYLFYGPPGTGKSSFISALASHFGYSVCLLSLSERTLDDDRLNHLLNTAPPNSVVILEDIDAAFVSREDPMSNHPAYQGLSRVTFSGLLNALDGVACAEERLTFMTTNYVERLDPALIRPGRVDRKQYFGNATDGMLSKMFSRFYRQPSDSVLADEFVKRVSEHKTELSPAMIQGHFLMYKQDPRAALDNIKNMFKTV", "soluble on expression in E. coli": "not soluble"}
{"sequence": "MSEPIRVLVTGAAGQIAYSLLYSIGNGSVFGKDQPIILVLLDITPMMGVLDGVLMELQDCALPLLKDVIATDKEDVAFKDLDVAILVGSMPRREGMERKDLLKANVKIFKSQGAALDKYAKKSVKVIVVGNPANTNCLTASKSAPSIPKENFSCLTRLDHNRAKAQIALKLGVTANDVKNVIIWGNHSSTQYPDVNHAKVKLQGKEVGVYEALKDDSWLKGEFVTTVQQRGAAVIKARKLSSAMSAAKAICDHVRDIWFGTPEGEFVSMGVISDGNSYGVPDDLLYSFPVVIKNKTWKFVEGLPINDFSREKMDLTAKELTEEKESAFEFLSSA", "soluble on expression in E. coli": "soluble"}
